Results taken from the supplement of paper PMC10567573.
± gives the standard deviation.

Experiment: protein stability index of a GFP-peptide fusion (GPS, HEK-293T) (PSI 1-6); higher = more stable
[1] = treatment: DMSO, c terminus: a fixed tail appended
[2] = treatment: MLN4924 1 uM, 8 h, c terminus: a fixed tail appended
[3] = treatment: DMSO, c terminus: native
[4] = treatment: MLN4924 1 uM, 8 h, c terminus: native
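Also: 24-mer peptide tiles fused after GFP, lentivirally expressed, FACS-sorted into six equal bins by GFP/DsRed ratio, decoded by Illumina sequencing, PSI is the read-weighted mean bin number.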

Row | Sequence | protein stability index [1] | protein stability index [2] | protein stability index [3] | protein stability index [4]
1 | INDNAPTFQSSVLRVGIPENAPIG [PCDHGC5] | 3.99 ± 0.066 | 4.18 ± 0.19 | – | –
2 | DYNPPRVQLSDEMFVFQDGRWVNE [CBY2] | 4.48 ± 0.23 | 4.37 ± 0.36 | – | –
3 | LHPPVDDPQSGELPSERWNPTQNV [CDC34] | 5.02 ± 0.36 | 5.04 ± 0.32 | – | –
4 | KIASLLGLLSKTAGFSPDCIMDDA [INTS4] | 2.57 ± 0.58 | 2.19 ± 0.55 | – | –
5 | MGEDEDGLSEKNCQNKCRIALVEN [PLD5] | 5.14 ± 0.51 | 4.82 ± 0.11 | – | –
6 | GHVEMVNLLLAKGANINAFDKKDR [ANKRD44] | 3.41 ± 0.19 | 3.38 ± 0.3 | – | –
7 | TVARPVFTEYQASAFGNVKLVVHD [RHOBTB3] | 3.06 ± 0.33 | 3.17 ± 0.23 | – | –
8 | IPYWVAYYLALLLSLLVMVISPVI [NSDHL] | 2.23 ± 0.31 | 2.28 ± 0.38 | – | –
9 | DEGFIKEEERPLPEKEYQRQVWLL [KCNA1] | 3.8 ± 0.28 | 3.73 ± 0.24 | – | –
10 | VGRLKRERSMSENAVRQNGQLVRN [MFF] | 5 ± 0.16 | 4.94 ± 0.078 | – | –
11 | NDYIVPRHCPELAEMSRVSIRILD [HNF4A] | 3.08 ± 0.19 | 3.29 ± 0.24 | – | –
12 | IFEGNSEKEIPVLNELPVPMVARY [CPXM2] | 3.55 ± 0.16 | 3.37 ± 0.33 | – | –
13 | NSEADQLGKIFDLIGLPPEDDWPR [CDK4] | 3.7 ± 0.35 | 3.92 ± 0.23 | – | –
14 | AEEAGLKNNDLVVAVNGESVETLD [PDZK1] | 5.49 ± 0.2 | 5.51 ± 0.26 | – | –
15 | GDRLNVEVDAAPPVDLNKILEDMR [KRT36] | 4.24 ± 0.4 | 4.323 ± 0.035 | – | –
16 | VKDLIKKLLVVDRTRRLGNMKNGA [PRKX] | 2.62 ± 0.57 | 2.33 ± 0.56 | – | –
17 | DYSPYFKTIEDLRNKIIAATIENA [KRT16] | 2.33 ± 0.22 | 2.44 ± 0.42 | – | –
18 | WICQRSTVASMMHRQETVDCLKKF [CAMK2D] | 2.67 ± 0.15 | 2.43 ± 0.64 | – | –
19 | AENSPYLNPQLVQPAKKPLLWSDP [ESRRG] | 3.9 ± 0.25 | 3.81 ± 0.23 | – | –
20 | KSHVYMAWNIPMSNPGVDFGDVSE [GALNT9] | 2.65 ± 0.26 | 2.79 ± 0.15 | – | –
21 | ASHQQQVLPPRQPSALVPSVTEYR [MYBL2] | 4.38 ± 0.28 | 4.37 ± 0.15 | – | –
22 | LSAEPGWQAKREEEEEEEEEAEAG [CHGA] | 5.62 ± 0.081 | 5.4 ± 0.59 | – | –
23 | GNNEDVSFSRPADLDLIQSTPFKP [MFF] | 4.36 ± 0.059 | 5.06 ± 0.56 | – | –

Row | Sequence | protein stability index [1] | protein stability index [2] | protein stability index [3] | protein stability index [4]
24 | TIRLNISDVNDNAPRFNQQLYTAY [PCDHGC5] | 2.41 ± 0.18 | 2.37 ± 0.2 | – | –
25 | PSPMPTHRSYLGPGSTSPLETSGN [SLC6A17] | 4.13 ± 0.29 | 4.47 ± 0.26 | – | –
26 | RYGCGHRGCGDGCCCPSCYRRYRF [KRTAP19-2] | 3.29 ± 0.27 | 3.62 ± 0.54 | – | –
27 | IMTQLRQEGWIHHLARHAVACFLT [CRY1] | 3.02 ± 0.38 | 2.84 ± 0.61 | – | –
28 | SNKYGFGYQLSDHTVGVLFNNGAH [PLK2] | 2.61 ± 0.41 | 2.58 ± 0.5 | – | –
29 | LTPTYLNQEDAIHFHRTLKEACDQ [CPOX] | 4.11 ± 0.25 | 4.35 ± 0.29 | – | –
30 | AFAERYAPDKTSTVLTRHSQPATP [PDLIM7] | 4 ± 0.3 | 3.82 ± 0.18 | – | –
31 | DGSKSEDELDQASTPTDVRDIDL [CCND2] | – | – | 4.41 ± 0.26 | 4.71 ± 0.33
32 | APGTGPAQTELLCCLVKMESLEPD [FANCE] | 3.28 ± 0.23 | 3.39 ± 0.12 | – | –
33 | KQRLMENTEDWRPRPGTGQSRSFR [PDLIM7] | 4.18 ± 0.2 | 4.418 ± 0.008 | – | –
34 | KKIYEAKRFTDAGFEHYDLFFIDG [CDC14A] | 2.36 ± 0.29 | 2.34 ± 0.23 | – | –
35 | IPAVSISYVVYENLKITLGVQSR [SLC25A25] | – | – | 3.19 ± 0.32 | 3.18 ± 0.36
36 | AGSVVAAVQGLNLRSPNNFLSYYR [CCND1] | 2.58 ± 0.2 | 2.61 ± 0.32 | – | –
37 | GGSSTSERCLLNNSLWKKNKTICK [NLN] | 3.44 ± 0.16 | 3.47 ± 0.33 | – | –
38 | EDGKTCRRKDVCQAIDHGCEHICV [MATN2] | 3.82 ± 0.2 | 4.24 ± 0.28 | – | –
39 | MTEPWLALGTSWTLPLQDRELGPE [CABP4] | 3.54 ± 0.39 | 4.16 ± 0.2 | – | –
40 | GLVPSEKPPMMPQAQPAIPRPNRL [C2CD2L] | 4.65 ± 0.21 | 4.47 ± 0.068 | – | –
41 | GSDLGGPLPTDPMLGLALGGLVVS [TSPAN10] | 2.88 ± 0.2 | 2.66 ± 0.19 | – | –
42 | WATRKPPAPKSTYECRCIGEEKEM [TIA1] | 2.98 ± 0.44 | 3.4 ± 0.58 | – | –
43 | ALFAQVQRGALPAPDPELAAEMYQ [RSAD1] | 3.69 ± 0.087 | 3.78 ± 0.34 | – | –
44 | IEREVNILREIRHPNIITLHDIFE [DAPK3] | 2.69 ± 0.17 | 2.71 ± 0.42 | – | –
45 | MGYMLFNERMLESYLHAKKYLKPS [CARM1] | 2.35 ± 0.17 | 2.08 ± 0.32 | – | –
46 | LGGIGFSSCIVCLFVGLYYNVIIG [SLC6A17] | – | 3.92 ± 0.088 | – | –

Row | Sequence | protein stability index [1] | protein stability index [2] | protein stability index [3] | protein stability index [4]
47 | AHNSNWYITFQSDTDAQQAFILKR [LARP4] | 2.38 ± 0.25 | 2.4 ± 0.55 | – | –
48 | SLGALDLLGPATGCLLDDGLEGLF [SERTAD1] | 2.6 ± 0.24 | 2.57 ± 0.32 | – | –
49 | NEFLEAFRLVEKSCPEGDASECPQ [PPEF2] | 5 ± 0.75 | 5.17 ± 0.32 | – | –
50 | VTHTEISPEQQFDRSVQRLLATRI [TMEM175] | 3.2 ± 0.28 | 3.34 ± 0.25 | – | –
51 | LEQIMESVKSKIGELEDESLNRAC [CEP70] | 4.47 ± 0.35 | 4.46 ± 0.36 | – | –
52 | AQNNCPAIMNALIEAGAHMDATNA [FEM1A] | 4.46 ± 0.23 | 4.49 ± 0.079 | – | –
53 | PAQLSCLPYLEHVGHNHTYNMAPS [NFE2L1] | 2.91 ± 0.25 | 2.96 ± 0.28 | – | –
54 | GAAGRSQEPEVPCAAVLPGKPGDR [RSPH3] | 5.31 ± 0.29 | 5.31 ± 0.2 | – | –
55 | RNLQDLARIYIRRTLRNFINDEMQ [PCMTD1] | 2.07 ± 0.18 | 2.49 ± 0.69 | – | –
56 | EHLEILQKEDVKPYQVNGVNPAYP [ETS1] | 4.1 ± 0.11 | 4.05 ± 0.28 | – | –
57 | TKELDQWIEQLNECKQLSESQVKS [PPP2CA] | 4.71 ± 0.094 | 4.69 ± 0.12 | – | –
58 | SEIKNLERYMCSRFFIDFPHIEEQ [TENT5D] | 2.42 ± 0.15 | 2.22 ± 0.35 | – | –
59 | IQHRRTHTDSKYEHAIAEAQKNMY [ZNF396] | 3.78 ± 0.27 | 3.96 ± 0.21 | – | –
60 | KPPQNPVDTYDVQVTAPGAPPLQA [TNXB] | 4.84 ± 0.35 | 4.46 ± 0.3 | – | –
61 | NPNGGSFEEVLSSTAHASAQSLAG [TPD52L1] | 4.76 ± 0.12 | 4.9 ± 0.11 | – | –
62 | TVFRAILDYYKTGIIRCPDGISIP [BTBD10] | 3.01 ± 0.24 | 2.56 ± 0.43 | – | –
63 | YLHTVSDCDTSSICEDSFDGRSLS [SCARA5] | 4.37 ± 0.13 | 4.51 ± 0.14 | – | –
64 | ENTLLNSQMVSTDNSLSSQNYISQ [MIA2] | 4.05 ± 0.23 | 4.03 ± 0.17 | – | –
65 | EGHSPGNLPKFCHECGTKYPVEWA [ZC2HC1A] | 2.91 ± 0.25 | 2.97 ± 0.28 | – | –
66 | VFEYCDHTLLNELERNPNGVADGV [CDKL4] | 3.89 ± 0.57 | 4.03 ± 0.55 | – | –
67 | DPLSDSDSMTSQAKPEALSSPKFR [ELOA2] | 5.2 ± 0.23 | 5.27 ± 0.17 | – | –
68 | RFALIPAPELVERVQSVDFMRTDP [KLHL14] | 3.26 ± 0.17 | 3.26 ± 0.18 | – | –
69 | AGTAGVGETGSGDQAGGEGKHITV [MYOZ1] | 5.51 ± 0.14 | 5.05 ± 0.71 | – | –

Row | Sequence | protein stability index [1] | protein stability index [2] | protein stability index [3] | protein stability index [4]
70 | LTPLELLLRQLGRDAGATPSAAGA [ANKRD9] | 2.42 ± 0.16 | 2.58 ± 0.23 | – | –
71 | EEIKKLTTDPDLILEVLRSSPMVQ [LARP4] | 2.39 ± 0.7 | 2.64 ± 0.64 | – | –
72 | LVEDMQRELGRLRQQVTNHGRGTE [ZNF263] | 3.35 ± 0.33 | 3.55 ± 0.22 | – | –
73 | HYFPVMKKCCIPETRRRMEMAFNT [NLN] | 2.35 ± 0.43 | 1.84 ± 0.27 | – | –
74 | FSPAKPKPSKELKPLLGSAVLGLL [MYORG] | 2.15 ± 0.53 | 2.21 ± 0.17 | – | –
75 | ANDGDYWRLLNPGEYVVTAKAEGF [CPXM2] | 2.81 ± 0.35 | 2.87 ± 0.081 | – | –
76 | PQTRSGPECGLAKKPPEESTCFER [ADAMTSL2] | 5.05 ± 0.22 | 5.08 ± 0.33 | – | –
77 | FLENLDKSRKGELLKKSDLQKDF [PRIM1] | – | – | 4.7 ± 0.24 | 5.154 ± 0.05
78 | GGKGHHLPSENLGKEPLDPDPSHS [TOR1AIP2] | 5.456 ± 0.051 | 5.15 ± 0.14 | – | –
79 | WQLLLFLCATHFGEPLEKVASVGN [KISS1] | 2.78 ± 1.2 | 2.29 ± 0.35 | – | –
80 | YGGSGDGLIPTGSGRHPSHSTTPS [ARFIP2] | 4.26 ± 0.069 | 4.51 ± 0.29 | – | –
81 | EDMLLPLAWRIVNDTYRTDLCLLY [CCNC] | 2.76 ± 0.57 | 2.59 ± 0.38 | – | –
82 | NEFLCTLQKKLDNLQCLYCEKTFR [ZNF277] | 2 ± 0.4 | 2.38 ± 0.32 | – | –
83 | LKSDLEKASALNTKIRALQGSLEN [CD207] | 3.91 ± 0.26 | 3.73 ± 0.66 | – | –
84 | VVKQFVTGIIDSLTISPKAARVGL [MATN2] | 2.15 ± 0.34 | 3.15 ± 1.4 | – | –
85 | GIHLALVELLKNLTKYPTDRDSIW [INTS4] | 2.77 ± 0.72 | 2.75 ± 1 | – | –
86 | TKDPDVAFHGLSLGLSLTNGLALG [PSD2] | 2.46 ± 0.21 | 2.43 ± 0.25 | – | –
87 | EARPIETYQVHDYLRSKLCSLYEN [PPP2R2C] | 2.7 ± 0.19 | 3.02 ± 0.33 | – | –
88 | DRFQVPTTEVNAWLVHRDPEGSVS [NFE2L1] | 3.842 ± 0.034 | 4.5 ± 0.063 | – | –
89 | ERAIRTQPKQLIVDDLKGSLKEDL [SPRY1] | 4.81 ± 0.28 | 4.85 ± 0.18 | – | –
